The target of test [1] is T1, protein A (Sigma), biotinylated (UniProt P38507 37-477).
T1 construct: Immobilised on streptavidin-coated tubes; also called pA
The test is described as follows: protein-DNA complex captured on biotinylated protein in streptavidin-coated PCR tubes; co-captured DNA detected by PCR and gel.

In test [2] the target is T2, human TNF receptor, biotinylated (human, UniProt P19438 30-211, limits assumed, biotinylated).
T2 construct: Immobilised on streptavidin-coated tubes
T2 sequence (looked up): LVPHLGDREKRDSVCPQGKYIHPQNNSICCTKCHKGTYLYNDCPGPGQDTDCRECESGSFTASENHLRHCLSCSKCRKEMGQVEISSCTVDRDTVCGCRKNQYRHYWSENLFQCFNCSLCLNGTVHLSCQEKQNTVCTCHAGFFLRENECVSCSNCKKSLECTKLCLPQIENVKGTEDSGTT
Described as above.

The target in test [3] is T3, BSA (Sigma), biotinylated (UniProt P02769 25-607).
T3 construct: Negative control surface
T3 sequence (P02769 25-607 limits assumed): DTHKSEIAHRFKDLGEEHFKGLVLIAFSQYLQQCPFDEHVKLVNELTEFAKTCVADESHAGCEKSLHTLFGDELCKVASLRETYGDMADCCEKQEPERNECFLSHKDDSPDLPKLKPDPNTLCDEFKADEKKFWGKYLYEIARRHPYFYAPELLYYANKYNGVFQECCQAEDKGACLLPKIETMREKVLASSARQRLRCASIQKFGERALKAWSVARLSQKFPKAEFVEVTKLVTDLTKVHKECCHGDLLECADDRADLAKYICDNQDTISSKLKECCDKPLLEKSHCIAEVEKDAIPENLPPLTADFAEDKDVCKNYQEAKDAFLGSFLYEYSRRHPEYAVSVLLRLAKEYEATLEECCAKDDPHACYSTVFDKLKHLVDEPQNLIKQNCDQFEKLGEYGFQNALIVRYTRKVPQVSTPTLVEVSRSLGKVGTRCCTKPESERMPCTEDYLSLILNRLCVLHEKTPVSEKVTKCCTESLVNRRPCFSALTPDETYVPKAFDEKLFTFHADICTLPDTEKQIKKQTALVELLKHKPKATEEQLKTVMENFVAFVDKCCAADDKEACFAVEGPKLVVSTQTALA
The description is as above.

Test [4] concerns the target T4, β-galactosidase (Sigma), biotinylated (Escherichia coli (strain K12), UniProt P00722 2-1024 = β-galactosidase, Biotinylated (sites not given); the native enzyme is a homotetramer, and one chain is given).
T4 construct: Immobilised on streptavidin-coated tubes or wells
Description: method not stated.

T4 sequence (P00722 2-1024 limits assumed): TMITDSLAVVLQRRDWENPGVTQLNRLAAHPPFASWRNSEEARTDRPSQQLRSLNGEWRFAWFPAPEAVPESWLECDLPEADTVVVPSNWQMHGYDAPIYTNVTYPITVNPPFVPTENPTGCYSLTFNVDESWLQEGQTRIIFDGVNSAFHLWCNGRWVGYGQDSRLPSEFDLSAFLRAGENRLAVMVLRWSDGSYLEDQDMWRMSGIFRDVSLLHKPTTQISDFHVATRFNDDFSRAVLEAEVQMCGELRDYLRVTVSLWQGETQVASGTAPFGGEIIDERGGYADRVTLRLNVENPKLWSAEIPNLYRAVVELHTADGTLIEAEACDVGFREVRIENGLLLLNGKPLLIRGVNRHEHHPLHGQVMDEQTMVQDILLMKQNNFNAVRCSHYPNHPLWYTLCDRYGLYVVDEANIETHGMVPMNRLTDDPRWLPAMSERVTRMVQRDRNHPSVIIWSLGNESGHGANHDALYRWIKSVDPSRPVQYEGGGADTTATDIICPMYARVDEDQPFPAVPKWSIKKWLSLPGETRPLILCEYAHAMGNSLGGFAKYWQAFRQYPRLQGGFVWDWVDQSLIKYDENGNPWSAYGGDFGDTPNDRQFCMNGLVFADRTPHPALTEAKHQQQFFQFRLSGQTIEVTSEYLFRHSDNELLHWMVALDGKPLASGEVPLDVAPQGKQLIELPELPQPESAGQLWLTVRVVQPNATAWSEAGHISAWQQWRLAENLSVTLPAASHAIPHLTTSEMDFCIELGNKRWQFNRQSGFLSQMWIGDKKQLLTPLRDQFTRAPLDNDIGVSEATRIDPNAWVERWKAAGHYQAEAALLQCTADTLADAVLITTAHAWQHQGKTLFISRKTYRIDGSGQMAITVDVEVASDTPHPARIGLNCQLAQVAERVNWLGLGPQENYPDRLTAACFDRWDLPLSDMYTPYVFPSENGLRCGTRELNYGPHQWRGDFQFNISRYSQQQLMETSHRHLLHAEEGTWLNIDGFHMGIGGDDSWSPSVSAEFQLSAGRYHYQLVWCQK

B1: HA-tagged scArc repressor expressed from pIE2aA / pIE2a^2A-derived genetic elements (other)
chain: MGSTGGAAAGSGGGSGGGHMKGMSKMPQFNLRWPREVLDLVRKVAEENGRSVNSEIYQRVMESFKKEGRIGAGGGSGGGSGGGSGGGHMKGMSKMPQFNLRWPREVLDLVRKVAEENGRSVNSEIYQRVMESFKKEGRIGAGGGSGGGSYPYDVPDYA
notes: The same protein is encoded by pIE2A, pIE2aA and pIE2a^2A (they differ in the number of operators on the DNA); also called scArc-HA; pIE2-encoded scArc-HA
Take B1: the binding result in test [1], in test [2] and in test [3] was “no binding” throughout.

B2: HA-tagged scArc repressor expressed from pIE3A / pIE3aA-derived genetic elements (other)
chain: MSGSGGGSGGGHMKGMSKMPQFNLRWPREVLDLVRKVAEENGRSVNSEIYQRVMESFKKEGRIGAGGGSGGGSGGGSGGGHMKGMSKMPQFNLRWPREVLDLVRKVAEENGRSVNSEIYQRVMESFKKEGRIGAGGGSGGGSMGSTGGAAARSYPYDVPDYA
notes: In vitro translated; differs from the pIE2 form in that the MCS-encoded region lies between scArc and the HA tag; also called pIE3-derived scArc-HA; scArc-HA
As for B2, in test [3], the binding result is “no binding”.

B3: VH(DOM1h-10-27)-scArc fusion protein (pIE2aAVH(DOM1h-10-27)) (other)
chain: MAEVQLLESGGGLVQPGGSLRLSCAASGFTFEWYWMGWVRQAPGKGLEWVSAISGSGGSTYYADSVKGRFTISRDNSKNTLYLQMNSLRAEDAAVYYCAKVKLGGGPNFGYRGQGTLVTVSSAAGGGSGGGHMKGMSKMPQFNLRWPREVLDLVRKVAEENGRSVNSEIYQRVMESFKKEGRIGAGGGSGGGSGGGSGGGHMKGMSKMPQFNLRWPREVLDLVRKVAEENGRSVNSEIYQRVMESFKKEGRIGAGGGSGGGSYPYDVPDYA
notes: Human heavy chain VH domain antibody against human TNF receptor fused to scArc; in vitro translated, assayed as protein-DNA complex (one Arc operator), with the stabilising 3F10 mAb; also called VH(DOM1h-10-27) domain antibody fusion construct with scArc
With B3, in test [3], the binding result was “no binding”.

B4: anti-β-galactosidase Vκ domain antibody clone E5 (other)
VL: DIQMTQSPSSLSASVGDRVTITCRASQSVSSYLNWYQQKPGKAPKLLIYLASRLQSGVPSRFSGSGSGTDFTLTISSLQPEDFATYYCQQNWWLPPTFGQGTKVEIK
notes: The Vκ single domain itself; also called Vκ(E5); Vk(E5)
The Kd is the concentration at which binding is half-saturated. The low end stands for higher affinity, the high end for lower affinity. With B4, in test [4], the Kd is above 1000 nM.

B5: scArc expressed from pIE7aA, pIE7a2A, pIE7a3A or pIE7a4A (other)
chain: MGSTGGAAAKEAAAKEAAAKEAAAKELAAKEAAAKEAAAKEAAAKELAAGSGGGSGGGHMKGMSKMPQFNLRWPREVLDLVRKVAEENGRSVNSEIYQRVMESFKKEGRIGAGGGSGGGSGGGSGGGHMKGMSKMPQFNLRWPREVLDLVRKVAEENGRSVNSEIYQRVMESFKKEGRIGAGGGSGGGSYPYDVPDYA
notes: in vitro translated in the presence of 3F10 αHA mAb; also called scArc complex with DNA
On to B5, for which the binding result in test [1] and in test [3] was “no binding” throughout.

These data come from patent publication US20090176209A1 (DOMANTIS, published 2009).
